{"source": "the DeepSol protein solubility set", "data": [{"experiment": "soluble on expression in E. coli; label from the status in PepcDB or PDB records", "values": [{"sequence": "RGFAKIRDERARRDKIHNLIKRKLDPTKRFSSKQQRQLDRLTRESNLKPSELKETIREEVVEELAGAADGDDVDAVIDEAAGITTTYEPIEFEDTTVSVEDTSLGLPSHARPMSELEDLTTFEEDIAEEAATNTPADKPAAKH", "soluble on expression in E. coli": "not soluble"}, {"sequence": "VAADAYLVRRGQETKRGSGKGGASKGTPRGLSVIAGYPWFADWGRDAMIALSGLTLVTGRFEDARELLLTFLGQRRRGLIPNHFDESGQGAGYNTVARPLWLAVALERYARTTGDALFVRQALPMLRELLGSLVQGTDYGIGMDPADALLRAGEPGVQLTWMDVKIHDWVVTPRHGKPVEIQALWLAALGAELRLSQALGEPPRYAAVLERAHHSFKAQFWNHAADLTAAPTATLLGLGQLGSSLGGALSDALDGDFVLDDEPRRDTSSDALLTVGGRPGSGPVQSTTGASELGVGHRPGAAPAQPAVLADVIQPSGEQDLSVRPNAVIALALADTPVVDEQLDAVLAQTERELLTPVGLHTLSPHDPRYLGNYGGPQLLRDAAYHQGTVWPWPLASYVELLLSRGELNRARAALAGLTGHVWEAGIGHVSEVFSGDALTPGGCPFQAWSVAELLR", "soluble on expression in E. coli": "not soluble"}, {"sequence": "GGGGSSGGSTGGGSGSGPVTIEIGSKGEELAFDKTELTVSAGQTVTIRFKNNSAVQQHNWILVKGGEAEAANIANAGLSAGPAANYLPADKSNIIAESPLANGNETVEVTFTAPAAGTYLYICTVPGHYPLMQGKLVVN", "soluble on expression in E. coli": "soluble"}, {"sequence": "MGHHHHHHSHMNILFLQWKVKLPPQKEVITSDELMAHLGNCLLSIKPQEKSEGLQLNFQQNVDDAMTVLPKLATGLDVNVRFTGVSDFEYTPECSVFDLLGIPLYHGWLVDPQSPEAVRAVGKLSYNQLVERIITCKHSSDTNLVTEGLIAEQFPETTAAQLTYHGLCELTAAAKEGELSVFFRNNHFSTMTKHKSHLYLLVTDQGFLQEEQVVWESLHNVDGDSCFCDSDFHLRHSLGKGPGAEGGSGSPEKQLQVDQDYLIALSLQQQQPRGPLGLTDLELAQQLQQEEYQQQQAAQPVRMRTRVLSLQGRGATSGRPAGERRQRPKHESDCILL", "soluble on expression in E. coli": "not soluble"}, {"sequence": "MTLRSQDPRIAIIGGGIAGATAAVHLGELGLNVVLMEKSAGLVSGPPICHLHAGGNLYREISEQQCIDLLEQSIETVRLYPHTLNVRPTLIAIPQSDPGQPEEILPRLVTIQNAYRKLVEQDAANQVLGAVDNYYRLYQREELERLAQQQQANPPQSDDEWVIPFAQHADLAQLKYPVVLVQEYGWSVFRLAASVDLTLEALPNCQVMLRTELVDATFQDNQWRLTYLDAQGERHTQTVDYLVNACGFETGRVDDMARHHRQRLVEFKAAYVTHWPACHQWWPEVIFHGPRGSEDGMAQLTPYADGTFQLHGMTESITLFADGLVASTPTSAQPQLPLYLQHKIERGWPMSAQQERTVRAIQHMSRFVPSFDNAEFAGKPLFGAQQIPGDDVTLRAADVSFEANQYARLEVVKGSSALRAARQLVAVWQLKPDAGELSIETEHPCSMAFTAQQVEQQAIRLCHARGYPAALAKVYGLLEHHHHHH", "soluble on expression in E. coli": "soluble"}, {"sequence": "IRDFSYGVKFVLSDSQQKILKYPNEDYNIGTYYKGQKLNNIWGYKTIGIAQSQEEMDAHLAKVDQSALGSKWGAGDIMYADLDGDGKISTGSNKLGDTGDRVILGNSTPRFNYGLTIDASWKGIDFRAFFQGIGKRDYWLQGPYFWGSTGLGQWQAAGFKEHWDFWRPEGDPLGANTNAYYPRVARNGGKNTNVQSRYLQNAAYCRLKNIQIGYTLPKTWTEKAGMSSVRVYVSGDNLLTFSDITGIFDPEAIGSTYDANNGKLYPLQRVISVGLNVNF", "soluble on expression in E. coli": "not soluble"}, {"sequence": "MAHHHHHHMHQHGKTSGTDGSGATVSQSSSGFMETPWRIFEYGVASEQGSRKTMEDQHAMVAESFPFFAVYDGHGGTQCAEFLRDNLHTFIFGQPEIETDPERATRAGIAEAENAFLTKCADEKIESGSTCAVALVVDDTLIAGNVGDSEIVLCRAGAPIVLSTKHSIQDNVSEGERVKACGGRIISNRVGHPKFNPQLLSLAITRAIGDAGFKLREFTDGKPSGVIADAETRSTRLTDDDKFLIIGCDGLWDVMSYEAAVQLCSRLASEGETPKAIAGSLCQEALRQGSTDNVTCIYINIRAKSSAPGCGQLGSGDPLHNM", "soluble on expression in E. coli": "soluble"}, {"sequence": "MSIHICQPVSPKENPNGILNNSRPTTALSGLPELHTVGQGADLEIWTKDSHALLFLLKGEPAVFVGPESGNSQLSGDNVVLLAANLRIRLRAEKGPATLICFYFHPTLHLCLGICPSSGNKKECRRRTEIVHISSLQRETMVNSWLHSVMGYLSEMPTSSEIFELKLRELFCIFRSRYEKPLLDNFLSSFHCQNKGFRAFVFRHHLECRSAEELAAKMNLSLSSFKRHFNQEFSCPPLKWMHEERAKHVYTDLADPSLSLKAIAEKNLFSSVSYLCAFCRKMLGNTPLQLRKAMGQQPK", "soluble on expression in E. coli": "not soluble"}, {"sequence": "IETNRRERRIKRNKYLLSLYNNTNIKTSNFIYPLFIHEEDVEKKHTQLEGIYTYNVDGIIKEIEECIKLNIHHFMFFPVIREENKTVYCEESYNENSYFCKTISRIKEKFSDDIIVYTDVALDPYNIYGHDGIYDDNKKEILNDITVHTLVKQSLCLAKSGADVVCPSDSMDKRIELIRKNLDFHNFRDILILSYTCKYSSSMYKPFRSILNSNILKNFVKNKQSYQHDFNSYMDLNNVDKHIIEGADIIMVKPSMFYLDIIHKIKNRIKDDVQIPIAVYNVSGEYMMIKNYVKYLNEDINYENEIITELFKSYLRAGANIIITYFAKQYGLYMKKLYDKNIIIDDNSNNNFNIELTL", "soluble on expression in E. coli": "soluble"}, {"sequence": "MKSNKNEFLKLLTAYQGIIHKVNRIYFRSEADREDNFQETVYQLWRSFPALQNKEKPASWIYTVAINTSISKVRKDSRIEFRDSPPDGEPVDPWEQQEQDENWQRLVNALQKLNEIDKSIMLLYMEDYSYEEIAGIVGISSSAVGVKIHRLKGQLQKQFKK", "soluble on expression in E. coli": "not soluble"}, {"sequence": "GSHMRLDKFIAQQLGVSRAIAGREIRGNRVTVDGEIVRNAAFKLLPEHDVAYDGNPLAQQHGPRYFMLNKPQGYVCSTDDPDHPTVLYFLDEPVAWKLHAAGRLDIDTTGLVLMTDDGQWSHRITSPRHHCEKTYLVTLESPVADDTAEQFAKGVQLHNEKDLTKPAVLEVITPTQVRLTISEGRYHQVKRMFAAVGNHVVELHRERIGGITLDADLAPGEYRPLTEEEIASVV", "soluble on expression in E. coli": "soluble"}, {"sequence": "SARLPKLAVFDLDYTLWPFWVDTHVDPPFHKSSDGTVRDRRGQDVRLYPEVPEVLKRLQSLGVPGAAASRTSEIEGANQLLELFDLFRCYLHSHPEWNESSNSKSRVRDICEGPNWAFEVQP", "soluble on expression in E. coli": "soluble"}, {"sequence": "MSLSVQREDVDIKLIAIDMDGTLLNDEQLISDENRKAIREAEDKGVYVVISTGRTLMTCRELAESLKLSSFLITANGSEIWDSNFNLVERKLLHTDHIQMMWDLRNKHNTNFWASTVNKVWRGEFPENITDHEWLKFGFDIEDDDIRNEVLEELRKTKSSEITNSSPTNIEVNALGINKAAAPCQGYGKLGFTMENVMAMGDSLNDIAMIKEAGLGVAMGNAQDIVKETADYITDTNIEDGVAKAIRHWVLEGHHHHHH", "soluble on expression in E. coli": "soluble"}, {"sequence": "MGSDKIHHHHHHMSAFSVEKIGLQDSQQFSKLFIDYLAQQEHIQPLYTFYPDMAGLETAIEKRSKQPINRTVLVERLKAQYKDLPVSEKVQQNIERLASEHTFTITTGHQLCLGTGPLYLILKTLSCVKLCEALKTKHADNEFVPVFWMASEDHDAAEINHFYVFGKKYTWETTQTGAVGRFTTTGISEVLETIKDIPAWLKDAYQSSVTLAEATRKVMHQLFAEYGVVVIDGDDAALKKEFTAVIEKELFEQPAVAVMNQTNRSIERHGYSIQVNPRDINLFYVKDSLRERIEKQGERFVVLHTDVSFSAGEIKKEVADHPERFSPNVVLRPLYESTILPDIAYVGGPGEIAYWLQLKEVFAVYNTFLPAIFPRMFSGVITKQQCVKLEKAHVTVAELFLSEFDLKQVVVSRSIQEEISIEAEAGKITAAFDTIASIAATVDGSLQSWAQAEKAKALKQLEDIEKKLRKAEERKHDDVIKSVLGIRDKILPNGKLQERQESVFTFLVNDAQLIEKLYQSLDPCTFNIQMCCYE", "soluble on expression in E. coli": "not soluble"}, {"sequence": "MFQIQETIVSPDLFDKYFVCDYATCQGICCVEGESGAPLEAGEADLLRKYLDAVRDMLSSEALEVIDKQGVSYLDVEGDEVTSIVNGRDCVFTTYDEKGNCLCAFERAYRLGKIDFPKPLSCHLYPVRLTRYSSFTAVNYHRWEICRCAEALGRQMGTPLYRFLKEPLIRAFGKEWYKEMEEIAALLEQNPLKR", "soluble on expression in E. coli": "not soluble"}, {"sequence": "MSLFGTSTTAPAASTTPLFGSTAAAAPKPGGLFGAPAAAMSSGLFGASQTAPAPASAGLFGSTTAPTPASTSSVPLFGSTTTTASPSGGLFGAKTATTAAPAPTGGLFGASTAAPATGSLFGSTAPATGGLFGAKSTTSAAPTLGGGLFGSSTAPAAAATTSFGAPPATAAAPLGLGGIQQQNSSGGGLPNASGTATSSLTGTGDSKDASKDGEWTQAATLIRDLLPLIEDKFKKNREFMEETENMSIDNVAIEEQIDKTRGWIEEVRRDVLTATQSSERIAYLVSTDKTLCDTTKRVQEHSGSANQTTYMNAIKEHLAELCNFYGNDMDALQERVNFLRNRFEKLLTGEKSITMEELDAYFLRCDANVSNAHHHVTELGKEIEEIRDFLIEQGYTQLRKWSTTAASAAAPIASNSEMIVREGAEFFPSQSSLAIIGSSLRAPAAPAPAVGGLGLGTGTSLFGNTGTTSLFGSTATKPAFSGGSLFGATTSTATSSAAATTTTPTTSLFGSTKPATTTTPFASTVANNSSGLLFSSKK", "soluble on expression in E. coli": "not soluble"}, {"sequence": "KRTWWLWRQTISSSRGNKVVFEVNADSVRYKSGKIDRSLAWSEIDQLEQTDLGFILHLGKQRQYISKSCLNEEVIAFMVEQHAGSKAS", "soluble on expression in E. coli": "not soluble"}, {"sequence": "MATAATTASRSTTAGTSSTMGTPATTSAASRTTTTGTTTTMGQLIT", "soluble on expression in E. coli": "not soluble"}, {"sequence": "MGSDKIHHHHHHMSELIEVTHLTFTYTGQAAPALKDVSLTIHAGEFITLVGATGSGKTTLLKQLKHELWPAGERTGSLTFQDTAIQALSPVESAQQIGYVAQDPQVQPIMATVMEELAFPLENLGYPTATINDRIAEIANYLDLNHLLQRAIETLSGGQLQLVNLASVLALKPQVILLDESTAQLDPTTAQKFLNILQQVHDELDLTIVLTEHRLSRVMALTDRVALLANGQVLTVAEPTPALQQMAATPALQAFVPPVPHFFLDHNLVVTPLPLSVTMGRRALRQSSWRFQAVTTRQPAQSGPRESVLVATGVSFHYPTTGDILHQVELQVATGDWLAIIGKNGSGKSTLLTVLAGLQKPQHGKVRLNQQVIWRMKNQDRVLQVGYLSQNPTEQFNGDSVREELTAQAQLRGTSVAQRVDQMLIRCHLTAVADQNSFDLSGGQQQLLGLGLALMTEPQVLLLDEPTKGLDPDTKLRIGQLLQQAHETGLTIIMASHDMDFSAQFADTCTFMFNGRVNPPQATRLFFTQNFLATTAVNRLLRQQVPQALFSQDVVRTDKGGE", "soluble on expression in E. coli": "not soluble"}, {"sequence": "MGSDKIHHHHHHMLWLLMTTGKCNLKCDYCGGSFPDNVVPYGIKYDINSVKKLIEKDKDSTIIFYGGEPLLNYKFVMAVLDNVRAKRYGIQTNGIAVRLLPERYWRKINVALLSIDGREEITNKHRGKGIYKAVLRSAKYLKDLGVETIARMTVTQDTDIFTDVMHLIDLGLFDKVHWQLDVIWSEEWDFKSWSFSYLNGIKRLTDYFLSELRKGRVVKIIPILGVISAHFFEGYKGSPCGAGYSSVTVTPDGRILSCPIAVREKWAELGNVNLGYRLLEDPLPDDCKRCEFKRYCGGRCLYAQKERYWGEEGFKAVDEVNKEYLRTVLSIIPEIERLIRDGYIRLSDLYYNPILDSTEIIP", "soluble on expression in E. coli": "not soluble"}, {"sequence": "MSSTAAKKDVKSSAVPVTAVVEKKEFEEEEFEEFPVQEWAERAEGEEDDVNVWEDNWDDETHESEFSKQLKEELRKSGHQVA", "soluble on expression in E. coli": "not soluble"}]}]}
